Article PMC5114276

Key:
[1] = target: connexin36 (Cx36), rat, full length, fluorescently tagged (rat) (UniProt O70610); test: FRET or BRET; acceptor bleach FRET on a confocal microscope, Neuro2a cells 48 h after transient co-transfection; read at gap junction plaques (GJP) or at vesicles; non-stimulated or with 2 mM [Ca2+]E and 2 μM ionomycin, 24 μM BAPTA-AM or 10 μM W-7; FRET distance calculated from the efficiency (Ro 5.09), threshold 10 nm
[2] = target: Cx36 mutant R278A, rat, full length, fluorescently tagged (rat) (UniProt O70610); test: as above
[3] = target: Cx36 mutant G276A, rat, full length, fluorescently tagged (rat) (UniProt O70610); test: as above
[4] = target: connexin36 (Cx36), rat, full length, fluorescently tagged (rat) (UniProt O70610)

Question: How did the FRET distance (GJP, non-stimulated) [1] turn out when “calcium insensitive mutant CaM_(E1234Q) (from UniProt P0DP29 1-149) (natural protein)” was run?
Answer: The FRET distance (GJP, non-stimulated) was 10.9 nm.

Question: What about the FRET distance (GJP, stimulated with Ca2+ and ionomycin) [1] of the same substance?
Answer: The FRET distance (GJP, stimulated with Ca2+ and ionomycin) was 10.1 nm.

Question: And the FRET distance (vesicles, non-stimulated) [1]?
Answer: The FRET distance (vesicles, non-stimulated) was 9.96 nm.

Question: What about the FRET distance (vesicles, stimulated with Ca2+ and ionomycin) [1] of the same substance?
Answer: Its FRET distance (vesicles, stimulated with Ca2+ and ionomycin) is 10.8 nm.

Question: “calmodulin (CaM), rat, full length, fluorescently tagged (from UniProt P0DP29 1-149) (natural protein)” was tested. Which FRET distance (GJP, non-stimulated) [1] did it give?
Answer: Its FRET distance (GJP, non-stimulated) is 9.11 nm.

Question: And the FRET distance (GJP, stimulated with Ca2+ and ionomycin) [1]?
Answer: Its FRET distance (GJP, stimulated with Ca2+ and ionomycin) is 9.61 nm.

Question: What about the FRET distance (vesicles, non-stimulated) [1] of the same substance?
Answer: Its FRET distance (vesicles, non-stimulated) is 9.27 nm.

Question: What about the FRET distance (vesicles, non-stimulated; panel of the alanine mutants) [1] of the same substance?
Answer: Its FRET distance (vesicles, non-stimulated; panel of the alanine mutants) is 9.15 nm.

Question: And the FRET distance (vesicles, stimulated with Ca2+ and ionomycin) [1]?
Answer: The FRET distance (vesicles, stimulated with Ca2+ and ionomycin) was 8.09 nm.

Question: What about the FRET distance (vesicles, stimulated with Ca2+ and ionomycin; panel of the alanine mutants) [1] of the same substance?
Answer: Its FRET distance (vesicles, stimulated with Ca2+ and ionomycin; panel of the alanine mutants) is 7.69 nm.

Question: And the FRET efficiency (GJP, 10 μM W-7) [1]?
Answer: Its FRET efficiency (GJP, 10 μM W-7) is 2.7%.

Question: And the FRET efficiency (GJP, 24 μM BAPTA-AM) [1]?
Answer: Its FRET efficiency (GJP, 24 μM BAPTA-AM) is 2.8%.

Question: What about the FRET efficiency (GJP, non-stimulated; FRET pair I Cx36–DsRed, CaM–ECFP) [1] of the same substance?
Answer: The FRET efficiency (GJP, non-stimulated; FRET pair I Cx36–DsRed, CaM–ECFP) was 3.23%.

Question: What about the FRET efficiency (GJP, non-stimulated; FRET pair II Cx36–ECFP, CaM–DsRed) [1] of the same substance?
Answer: The FRET efficiency (GJP, non-stimulated; FRET pair II Cx36–ECFP, CaM–DsRed) was 3.35%.

Question: What about the FRET efficiency (GJP, stimulated with Ca2+ and ionomycin) [1] of the same substance?
Answer: Its FRET efficiency (GJP, stimulated with Ca2+ and ionomycin) is 2.8%.

Question: What about the FRET efficiency (vesicles, non-stimulated; FRET pair I Cx36–DsRed, CaM–ECFP) [1] of the same substance?
Answer: Its FRET efficiency (vesicles, non-stimulated; FRET pair I Cx36–DsRed, CaM–ECFP) is 3.65%.

Question: What about the FRET efficiency (vesicles, non-stimulated; FRET pair II Cx36–ECFP, CaM–DsRed) [1] of the same substance?
Answer: Its FRET efficiency (vesicles, non-stimulated; FRET pair II Cx36–ECFP, CaM–DsRed) is 3.09%.

Question: And the FRET efficiency (vesicles, stimulated with Ca2+ and ionomycin) [1]?
Answer: Its FRET efficiency (vesicles, stimulated with Ca2+ and ionomycin) is 6.38%.

Question: What about the FRET efficiency (vesicles, stimulated with Ca2+ and ionomycin; panel of the alanine mutants) [1] of the same substance?
Answer: The FRET efficiency (vesicles, stimulated with Ca2+ and ionomycin; panel of the alanine mutants) was 8.82%.

Question: What about the FRET distance (vesicles, non-stimulated) [2] of the same substance?
Answer: Its FRET distance (vesicles, non-stimulated) is 9.33 nm.

Question: What about the FRET distance (vesicles, stimulated with Ca2+ and ionomycin) [2] of the same substance?
Answer: The FRET distance (vesicles, stimulated with Ca2+ and ionomycin) was 8.26 nm.

Question: And the FRET efficiency (vesicles, non-stimulated) [2]?
Answer: The FRET efficiency (vesicles, non-stimulated) was 2.84%.

Question: What about the FRET efficiency (vesicles, stimulated with Ca2+ and ionomycin) [2] of the same substance?
Answer: The FRET efficiency (vesicles, stimulated with Ca2+ and ionomycin) was 6.54%.

Question: What about the FRET distance (vesicles, non-stimulated) [3] of the same substance?
Answer: The FRET distance (vesicles, non-stimulated) was 8.16 nm.

Question: And the FRET distance (vesicles, stimulated with Ca2+ and ionomycin) [3]?
Answer: The FRET distance (vesicles, stimulated with Ca2+ and ionomycin) was 7.48 nm.

Question: What about the FRET efficiency (vesicles, non-stimulated) [3] of the same substance?
Answer: The FRET efficiency (vesicles, non-stimulated) was 6.61%.

Question: And the FRET efficiency (vesicles, stimulated with Ca2+ and ionomycin) [3]?
Answer: Its FRET efficiency (vesicles, stimulated with Ca2+ and ionomycin) is 9.74%.

Question: What about the ethidium bromide fluorescence recovery after photobleaching in pairs of Neuro2a cells expressing Cx36–ECFP (CaM of the cells), non-stimulated [4] of the same substance?
Answer: The ethidium bromide fluorescence recovery after photobleaching in pairs of Neuro2a cells expressing Cx36–ECFP (CaM of the cells), non-stimulated was 5.82%.

Question: What about the ethidium bromide fluorescence recovery after photobleaching in pairs of Neuro2a cells expressing Cx36–ECFP (CaM of the cells), stimulated with 2 mM [Ca2+]E and 2 μM ionomycin [4] of the same substance?
Answer: The ethidium bromide fluorescence recovery after photobleaching in pairs of Neuro2a cells expressing Cx36–ECFP (CaM of the cells), stimulated with 2 mM [Ca2+]E and 2 μM ionomycin was 47.5%.

Question: What about the ethidium bromide fluorescence recovery after photobleaching in pairs of Neuro2a cells expressing Cx36–ECFP, CaM blocked with 10 μM W-7, non-stimulated [4] of the same substance?
Answer: The ethidium bromide fluorescence recovery after photobleaching in pairs of Neuro2a cells expressing Cx36–ECFP, CaM blocked with 10 μM W-7, non-stimulated was 16.6%.

Question: And the ethidium bromide fluorescence recovery after photobleaching in pairs of Neuro2a cells expressing Cx36–ECFP, CaM blocked with 10 μM W-7, stimulated with 2 mM [Ca2+]E and 2 μM ionomycin [4]?
Answer: Its ethidium bromide fluorescence recovery after photobleaching in pairs of Neuro2a cells expressing Cx36–ECFP, CaM blocked with 10 μM W-7, stimulated with 2 mM [Ca2+]E and 2 μM ionomycin is 3.77%.
